Molecular target: T1, Flag-γ-tubulin (human, UniProt P23258 1-451)
T1 construct: γ-tubulin (tubg1), full-length cDNA amplified from an MCF-7 cDNA library, in a pcDNA3.0-based vector; also called wild-type Flag-γ-tubulin; source: HEK293T, transfected, in lysate; anti-Flag immunoprecipitated and resolved by SDS-PAGE for the far-Western; not shown: Flag, N-terminal, kept
Experiment: far-Western, overlay or dot blot; anti-Flag immunoprecipitates from HEK293T resolved by SDS-PAGE and blotted onto PVDF; membrane incubated with purified GST or GST fusion protein 2 h at room temperature; probed with anti-GST
Conditions: both partners purified

T1 sequence (P23258 whole entry): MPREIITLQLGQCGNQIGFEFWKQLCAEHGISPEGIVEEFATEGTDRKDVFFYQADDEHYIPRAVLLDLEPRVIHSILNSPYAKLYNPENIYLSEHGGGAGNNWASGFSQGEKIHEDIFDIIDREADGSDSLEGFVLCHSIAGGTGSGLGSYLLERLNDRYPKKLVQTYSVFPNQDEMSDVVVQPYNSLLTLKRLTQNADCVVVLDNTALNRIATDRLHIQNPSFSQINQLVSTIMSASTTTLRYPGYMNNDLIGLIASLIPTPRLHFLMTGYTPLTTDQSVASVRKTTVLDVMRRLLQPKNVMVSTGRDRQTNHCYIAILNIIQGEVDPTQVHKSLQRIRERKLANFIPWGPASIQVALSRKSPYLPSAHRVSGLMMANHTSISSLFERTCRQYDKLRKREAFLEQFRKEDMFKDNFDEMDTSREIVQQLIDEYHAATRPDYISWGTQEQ

B1: GST-c-Abl SH2 (domain or fragment, UniProt P00519 127-217, looked up)
chain: WYHGPVSRNAAEYLLSSGINGSFLVRESESSPGQRSISLRYEGRVYHYRINTASDGKLYVSSESRFNTLAELVHHHSTVADGLITTLHYPA
notes: SH2 domain of c-Abl; source: purified GST fusion protein; not shown: GST, N-terminal, kept
  binding result: binds
